Consider 5 molecules from US20260258123A1 (MOMENTA PHARMACEUTICALS, published 2026).

Experiment [1] deals with T1, cynomolgus monkey FcRn extracellular domain, GPI-linked, on the surface of HEK 293 cells (cynomolgus monkey, UniProt Q8SPV9 24-297; Q8SPW0 21-119, C-terminal engineered GPI linkage).
T1 construct: extracellular domain; b2m is not mentioned for these cells
Description: competition flow cytometry on HEK 293 cells with cell-surface GPI-linked cynomolgus monkey FcRn at pH 6.0; inhibition of the binding of 66 nM fluorescent probe-labeled non-specific IgG; readout cell bound IgG (MFI).

In experiment [2] the target is T2, recombinant human FcRn (rhFcRn) (human, UniProt P55899 24-297; P16213 21-119). Description: SPR (ProteOn XPR 36), mAb captured on anti-human Fc, rhFcRn as analyte, pH 7.4, 298K.
The target of experiment [3] is T3, endogenous human FcRn in cells (human, UniProt P55899 24-365).
T3 construct: whole, on cells; Mostly intracellular (endosomal); cells were fixed and permeabilised before staining in most assays. b2m is not mentioned; also called endogenously expressed human FcRn; FcRn in THP-1 cells, HAECs, HUVECs and HVTs
Description: FcRn occupancy in HVTs: unlabeled N027 for 1 hour at 37 C, free FcRn stained with VivoTag645-N027, flow cytometry.

The target in experiment [4] is T3, endogenous human FcRn in cells. Description: FcRn occupancy in HUVECs: unlabeled N027 for 1 hour at 37 C, free FcRn stained with VivoTag645-N027, flow cytometry.
Experiment [5] shares this target. Description: FcRn occupancy in HAECs: unlabeled N027 for 1 hour at 37 C, free FcRn stained with VivoTag645-N027, flow cytometry. A general note: A flow cytometer gives signals particle by particle.
Experiment [6] shares this target. Description: flow cytometry on fixed and permeabilised THP-1 cells (endogenous human FcRn), pH 7.4.
Experiment [7] deals with T2, recombinant human FcRn (rhFcRn). Description: SPR method of Example 2; differs from the 19.4 pM of Table 3. For orientation: SPR reads the build-up and loss of mass on a sensor chip optically.
Experiment [8] has as its target T3, endogenous human FcRn in cells. Description: cell-based or functional assay.

B1: N027 (antibody, human IgG1, lambda, N297A)
heavy: not shown
light: QSALTQPASVSGSPGQSITISCTGTGSDVGSYNLVSWYQQHPGKAPKLMIYGDSERPSGVSNRFSGSKSGNTASLTISGLQAEDEADYYCSSYAGSGIYVFGTGTKVTVLGQPKAAPSVTLFPPSSEELQANKATLVCLISDFYPGAVTVAWKADSSPVKAGVETTTPSKQSNNKYAASSYLSLTPEQWKSHKSYSCQVTHEGSTVEKTVAPTECS
notes: IgG1, lambda light chain; Fluorophore-labelled forms served as detection reagent in the occupancy assays; also called anti-FcRn antibody N027; VivoTag645-labeled N027
For the molecule B1, the EC50 (in general, the concentration needed to bring the measured effect to its halfway point) in experiment [1] was 4.46 nM. Moreover, in experiment [2], the Kd (in general, a measure of binding affinity in units of concentration) was determined as 0.0194 nM; the koff (as a rule, the rate constant with which the complex falls apart) was 2.31e-05 s⁻¹; the kon (in general, the second-order rate constant of association) stood at 1.19e+06 M⁻¹ s⁻¹. Besides, half-maximal inhibition in experiment [3] (IC50) required 0.15 µg/mL. The midpoint of inhibition in experiment [4], the IC50, lay at 0.15 µg/mL. Further, half-maximal inhibition in experiment [5] (IC50) was put at 0.23 µg/mL. Moreover, a half-maximal effect in experiment [6] (EC50) was put at 3 nM. In addition, in experiment [7], the Kd came out at 0.0193 nM. In experiment [8], the “intracellular IgG accumulation (VivoTag645-IgG, flow cytometry), ~IC50, HAECs” value is approximately 0.12 µg/mL; the “intracellular IgG accumulation (VivoTag645-IgG, flow cytometry), ~IC50, HUVECs” value is approximately 0.15 µg/mL; the “intracellular IgG accumulation (VivoTag645-IgG, flow cytometry), ~IC50, HVTs” value was approximately 0.07 µg/mL.

B2: N022 (antibody, human IgG1, lambda, N297A)
heavy: not shown
light: QSALTQPASVSGSPGQSITISCTGTGSDVGSYNLVSWYQQHPGKAPKLMIYGDSERPSGVSNRFSGSKSGNTASLTISGLQAEDEADYYCSSYAGSGIYVFGTGTKVTVLGQPKAAPSVTLFPPSSEELQANKATLVCLISDFYPGAVTVAWKADSSPVKAGVETTTPSKQSNNKYAASSYLSLTPEQWKSHKSYSCQVTHEGSTVEKTVAPTECS
notes: also called anti-FcRn antibody N022
B2 displayed an EC50 in experiment [1] of 4.8 nM. Besides, in experiment [2], the equilibrium dissociation constant (Kd) was determined as 0.031 nM, the koff worked out at 4.42e-05 s⁻¹ and the kon was 1.42e+06 M⁻¹ s⁻¹.

B3: N023 (antibody, human IgG1, lambda, N297A)
heavy: not shown
light: QSALTQPASVSGSPGQSITISCTGTGSDVGSYNLVSWYQQHPGKAPKLMIYGDSERPSGVSNRFSGSKSGNTASLTISGLQAEDEADYYCSSYAGSGIYVFGTGTKVTVLGQPKAAPSVTLFPPSSEELQANKATLVCLISDFYPGAVTVAWKADSSPVKAGVETTTPSKQSNNKYAASSYLSLTPEQWKSHKSYSCQVTHEGSTVEKTVAPTECS
notes: also called anti-FcRn antibody N023
In experiment [1], B3 showed an EC50 of 5.16 nM. In experiment [2], the Kd came out at 0.0314 nM, the koff came out at 2.91e-05 s⁻¹ and the on-rate (kon) worked out at 927000 M⁻¹ s⁻¹.

B4: N026 (antibody, human IgG1, lambda, N297A)
heavy: not shown
light: QSALTQPASVSGSPGQSITISCTGTGSDVGSYNLVSWYQQHPGKAPKLMIYGDSERPSGVSNRFSGSKSGNTASLTISGLQAEDEADYYCSSYAGSGIYVFGTGTKVTVLGQPKAAPSVTLFPPSSEELQANKATLVCLISDFYPGAVTVAWKADSSPVKAGVETTTPSKQSNNKYAASSYLSLTPEQWKSHKSYSCQVTHEGSTVEKTVAPTECS
notes: IgG1, lambda light chain; also called anti-FcRn antibody N026
For the molecule B4, the EC50 in experiment [1] is 2.68 nM. In experiment [2], the Kd came to 0.0365 nM, the koff was determined as 4.44e-05 s⁻¹ and the kon is 1.22e+06 M⁻¹ s⁻¹.

B5: N024 (antibody, human IgG1, lambda, N297A)
heavy: not shown
light: QSALTQPASVSGSPGQSITISCTGTGSDVGSYNLVSWYQQHPGKAPKLMIYGDSERPSGVSNRFSGSKSGNTASLTISGLQAEDEADYYCSSYAGSGIYVFGTGTKVTVLGQPKAAPSVTLFPPSSEELQANKATLVCLISDFYPGAVTVAWKADSSPVKAGVETTTPSKQSNNKYAASSYLSLTPEQWKSHKSYSCQVTHEGSTVEKTVAPTECS
notes: IgG1, lambda light chain; also called anti-FcRn antibody N024
The molecule B5 came in with a concentration for a half-maximal effect (EC50) in experiment [1] of 3.51 nM. In experiment [2], the Kd stood at 0.0355 nM, the koff stood at 4.03e-05 s⁻¹ and the kon was determined as 1.13e+06 M⁻¹ s⁻¹.
